Experimental data: FireProtDB

B1: Barstar, P11540 (parent)
chain: MKKAVINGEQIRSISDLHQTLKKELALPEYYGENLDALWDCLTGWVEYPLVLEWRQFEQSKQLTENGAESVLQVFREAKAEGCDITIILS
B2: Superoxide dismutase [Mn], mitochondrial, P04179 (parent)
chain: MLSRAVCGTSRQLAPVLGYLGSRQKHSLPDLPYDYGALEPHINAQIMQLHHSKHHAAYVNNLNVTEEKYQEALAKGDVTAQIALQPALKFNGGGHINHSIFWTNLSPNGGGEPKGELLEAIKRDFGSFDKFKEKLTAASVGVQGSGWGWLGFNKERGHLQIAACPNQDPLQGTTGLIPLLGIDVWEHAYYLQYKNVRPDYLKAIWNVINWENVTERYMACKK
B3: Tetracycline repressor protein class D, P0ACT4 (parent)
chain: MARLNRESVIDAALELLNETGIDGLTTRKLAQKLGIEQPTLYWHVKNKRALLDALAVEILARHHDYSLPAAGESWQSFLRNNAMSFRRALLRYRDGAKVHLGTRPDEKQYDTVETQLRFMTENGFSLRDGLYAISAVSHFTLGAVLEQQEHTAALTDRPAAPDENLPPLLREALQIMDSDDGEQAFLHGLESLIRGFEVQLTALLQIVGGDKLIIPFC
B4: Tissue-type plasminogen activator, P00750 (parent)
chain: MDAMKRGLCCVLLLCGAVFVSPSQEIHARFRRGARSYQVICRDEKTQMIYQQHQSWLRPVLRSNRVEYCWCNSGRAQCHSVPVKSCSEPRCFNGGTCQQALYFSDFVCQCPEGFAGKCCEIDTRATCYEDQGISYRGTWSTAESGAECTNWNSSALAQKPYSGRRPDAIRLGLGNHNYCRNPDRDSKPWCYVFKAGKYSSEFCSTPACSEGNSDCYFGNGSAYRGTHSLTESGASCLPWNSMILIGKVYTAQNPSAQALGLGKHNYCRNPDGDAKPWCHVLKNRRLTWEYCDVPSCSTCGLRQYSQPQFRIKGGLFADIASHPWQAAIFAKHRRSPGERFLCGGILISSCWILSAAHCFQERFPPHHLTVILGRTYRVVPGEEEQKFEVEKYIVHKEFDDDTYDNDIALLQLKSDSSRCAQESSVVRTVCLPPADLQLPDWTECELSGYGKHEALSPFYSERLKEAHVRLYPSSRCTSQHLLNRTVTDNMLCAGDTRSGGPQANLHDACQGDSGGPLVCLNDGRMTLVGIISWGLGCGQKDVPGVYTKVTNYLDWIRDNMRP
B5: AP-4 complex subunit mu-1, O00189 (parent)
chain: MISQFFILSSKGDPLIYKDFRGDSGGRDVAELFYRKLTGLPGDESPVVMHHHGRHFIHIRHSGLYLVVTTSENVSPFSLLELLSRLATLLGDYCGSLGEGTISRNVALVYELLDEVLDYGYVQTTSTEMLRNFIQTEAVVSKPFSLFDLSSVGLFGAETQQSKVAPSSAASRPVLSSRSDQSQKNEVFLDVVERLSVLIASNGSLLKVDVQGEIRLKSFLPSGSEMRIGLTEEFCVGKSELRGYGPGIRVDEVSFHSSVNLDEFESHRILRLQPPQGELTVMRYQLSDDLPSPLPFRLFPSVQWDRGSGRLQVYLKLRCDLLSKSQALNVRLHLPLPRGVVSLSQELSSPEQKAELAEGALRWDLPRVQGGSQLSGLFQMDVPGPPGPPSHGLSTSASPLGLGPASLSFELPRHTCSGLQVRFLRLAFRPCGNANPHKWVRHLSHSDAYVIRI
B6: Cytochrome c2, P00094 (parent)
chain: MKISLTAATVAALVLAAPAFAGDAAKGEKEFNKCKTCHSIIAPDGTEIVKGAKTGPNLYGVVGRTAGTYPEFKYKDSIVALGASGFAWTEEDIATYVKDPGAFLKEKLDDKKAKTGMAFKLAKGGEDVAAYLASVVK
B7: Protein GrpE, Q65H53 (parent)
chain: MAEEKQNEELNEQEELNETEAETAEAEQTAAEADAPAEETQTEMLEKQLKELQERLEEKENKLLRVQADFENYKRRARLDLEAAEKYRSQRIISDLLPALDNFERALQIDPDNEQTKSLLQGMEMVHRQILEALKNEGVEQIPSVGEQFDPNMHQAVMQVEDEAYESNAVVEELQKGYKLKDRVIRPSMVKVNQ

Variants of: B1
Conditions: Bacillus amyloliquefaciens; pH 8; 10 °C; Urea; CD; Tris Cl 50 mM; KCl 100 mM; structure 1BTA; whole UniProt chain shown

**Q.** For L35V, which “ddG of mutation (higher = less stable)” value is on record?
**A.** 1.1 kcal/mol

**Q.** And the unfolding free energy?
**A.** 1.9 kcal/mol

**Q.** Which results are given for L52V?
**A.** ddG of mutation (higher = less stable): 0.6 kcal/mol; unfolding free energy: 2.4 kcal/mol

**Q.** With L17V as the variant, how does the “ddG of mutation (higher = less stable)” value read?
**A.** 1.1 kcal/mol

**Q.** What about the unfolding free energy of the same variant?
**A.** 1.9 kcal/mol

**Q.** What does the source list for I6V?
**A.** ddG of mutation (higher = less stable): 1 kcal/mol; unfolding free energy: 2 kcal/mol

Same assay, conditions: Bacillus amyloliquefaciens; pH 7; Thermal; CD; phosphate 20 mM; structure 1A19; whole UniProt chain shown

**Q.** For H18Q, which Tm is on record?
**A.** 65 °C

Variants of: B2
Conditions: Homo sapiens; pH 7.8; 70 °C; Thermal; DSC; Potassium phosphate 2 mM; reversible: yes; structure 1N0J; whole UniProt chain shown

**Q.** Which “ddG of mutation (higher = less stable)” value does the source give for I82T here?
**A.** 2.7 kcal/mol

Same assay, conditions: Homo sapiens; pH 7.8; Thermal; DSC; Potassium phosphate 2 mM; reversible: yes; structure 1N0J; whole UniProt chain shown

**Q.** Which Tm does the source give for I82T here?
**A.** 56.4 °C

**Q.** And the “change of melting temperature, mutant - wild type (higher = more stable)” value (“change of melting temperature, mutant” below)?
**A.** -13.6 °C

**Q.** And the “unfolding enthalpy (calorimetric)” value?
**A.** 64.9 kcal/mol

Variants of: B3
Conditions: Escherichia coli; pH 7.5; 22 °C; Urea; CD; Tris-HCl 50 mM; NaCl 150 mM; reversible: yes(92%); structure 2TRT; whole UniProt chain shown

**Q.** For R128E, which “denaturant midpoint (higher = more stable)” value (shortened to “denaturant midpoint”) is on record?
**A.** 4.9 M

Variants of: B4
Conditions: Homo sapiens; pH 4.5; Thermal; CD; Unknown; structure 1PK2; whole UniProt chain shown

**Q.** Which unfolding free energy does the source give for H264Y here?
**A.** 2.9 kcal/mol

**Q.** For H264Y R268G, which unfolding free energy is on record?
**A.** 3.4 kcal/mol

Same assay, conditions: Homo sapiens; pH 7.4; Thermal; DSC; sodium Phosphate 10 mM; structure 1PML; whole UniProt chain shown

**Q.** With W277H as the variant, how does the Tm read?
**A.** 56.6 °C

**Q.** What about the “change of melting temperature, mutant” value of the same variant?
**A.** -19 °C

**Q.** And the “unfolding enthalpy (calorimetric)” value?
**A.** 56 kcal/mol

**Q.** Which Tm does the source give for W277F here?
**A.** 58.5 °C

**Q.** And the “change of melting temperature, mutant” value?
**A.** -17.1 °C

**Q.** And the “unfolding enthalpy (calorimetric)” value?
**A.** 40 kcal/mol

**Q.** For W277Y, which Tm is on record?
**A.** 63.3 °C

**Q.** What about the “change of melting temperature, mutant” value of the same variant?
**A.** -12.3 °C

**Q.** What about the “unfolding enthalpy (calorimetric)” value of the same variant?
**A.** 45 kcal/mol

Variants of: B5
Conditions: Homo sapiens; pH 7.4; Thermal; DSC; structure 3L81; whole UniProt chain shown

**Q.** With R283D as the variant, how does the Tm read?
**A.** 52.8 °C

**Q.** And the “change of melting temperature, mutant” value?
**A.** -3 °C

**Q.** Which results are given for D190A?
**A.** Tm: 50.9 °C; change of melting temperature, mutant - wild type (higher = more stable): -4.9 °C

Variants of: B6
Conditions: Rhodobacter capsulatus (strain ATCC BAA-309 / NBRC 16581 / SB1003); pH 7.5; 30 °C; GdnHCl; CD; Tris 20 mM; structure 1C2R; whole UniProt chain shown

**Q.** With G55S as the variant, how does the “denaturant midpoint” value read?
**A.** 0.86 M

**Q.** For P56A, which “denaturant midpoint” value is on record?
**A.** 0.9 M

Variants of: B7
Conditions: Bacillus licheniformis (strain ATCC 14580 / DSM 13 / JCM 2505 / CCUG 7422 / NBRC 12200 / NCIMB 9375 / NCTC 10341 / NRRL NRS-1264 / Gibson 46…; pH 7; Thermal; CD; Hepes 10 mM; reversible: Yes; whole UniProt chain shown

**Q.** Which Tm does the source give for L134H here?
**A.** 43.2 °C

**Q.** And the “change of melting temperature, mutant” value?
**A.** -8.8 °C

**Q.** What about the “unfolding enthalpy (van 't Hoff)” value of the same variant?
**A.** 21 kcal/mol
